Experimental data: article doi:10.1101/824060 (bioRxiv, 2019)

Assays:
Gid9 = biological target: T1, Gid9 (S. cerevisiae, UniProt P40492 1-516); assay: […]
T1 sequence: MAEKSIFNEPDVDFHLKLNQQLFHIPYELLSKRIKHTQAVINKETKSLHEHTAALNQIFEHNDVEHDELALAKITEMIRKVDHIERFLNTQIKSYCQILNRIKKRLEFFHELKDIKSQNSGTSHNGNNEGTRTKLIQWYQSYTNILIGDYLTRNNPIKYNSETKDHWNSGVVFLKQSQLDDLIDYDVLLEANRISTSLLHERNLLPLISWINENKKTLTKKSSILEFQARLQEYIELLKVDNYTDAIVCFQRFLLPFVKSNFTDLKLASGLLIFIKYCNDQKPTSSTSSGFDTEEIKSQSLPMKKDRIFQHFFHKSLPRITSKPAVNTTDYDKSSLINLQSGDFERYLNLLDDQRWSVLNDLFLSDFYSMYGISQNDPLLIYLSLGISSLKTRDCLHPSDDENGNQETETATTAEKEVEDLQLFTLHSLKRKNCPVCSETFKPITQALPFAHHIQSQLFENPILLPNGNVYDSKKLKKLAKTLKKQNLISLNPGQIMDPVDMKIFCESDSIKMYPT

[1] = biological target: T2, Gid1 (endogenous, in native GID^Ant) (S. cerevisiae (endogenous in strain …, UniProt P53076 1-958)); assay: cryo-EM structure
T2 sequence: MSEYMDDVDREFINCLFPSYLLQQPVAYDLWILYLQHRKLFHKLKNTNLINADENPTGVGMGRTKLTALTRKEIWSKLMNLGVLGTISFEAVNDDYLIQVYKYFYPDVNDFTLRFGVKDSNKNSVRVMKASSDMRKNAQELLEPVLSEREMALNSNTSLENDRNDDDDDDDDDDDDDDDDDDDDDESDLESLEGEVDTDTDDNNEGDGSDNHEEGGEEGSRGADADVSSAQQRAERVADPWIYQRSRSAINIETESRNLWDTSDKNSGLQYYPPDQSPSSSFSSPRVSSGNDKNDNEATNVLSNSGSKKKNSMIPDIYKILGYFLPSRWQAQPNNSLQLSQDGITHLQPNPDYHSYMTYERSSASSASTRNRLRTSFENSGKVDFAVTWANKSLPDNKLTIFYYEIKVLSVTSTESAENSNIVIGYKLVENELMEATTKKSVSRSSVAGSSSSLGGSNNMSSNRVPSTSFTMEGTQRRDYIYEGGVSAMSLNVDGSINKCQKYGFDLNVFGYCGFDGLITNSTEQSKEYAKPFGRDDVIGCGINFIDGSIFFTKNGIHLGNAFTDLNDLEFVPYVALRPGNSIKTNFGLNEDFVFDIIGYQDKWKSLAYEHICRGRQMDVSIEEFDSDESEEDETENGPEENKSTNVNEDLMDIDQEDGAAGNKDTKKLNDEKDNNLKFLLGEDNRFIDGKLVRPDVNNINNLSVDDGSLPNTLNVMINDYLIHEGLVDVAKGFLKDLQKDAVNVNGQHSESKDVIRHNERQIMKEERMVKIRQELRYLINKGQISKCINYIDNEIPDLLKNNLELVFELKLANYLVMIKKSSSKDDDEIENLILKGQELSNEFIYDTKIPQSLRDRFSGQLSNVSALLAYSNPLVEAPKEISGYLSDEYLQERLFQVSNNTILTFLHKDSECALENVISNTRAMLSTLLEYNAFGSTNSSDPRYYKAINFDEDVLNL

[2] = biological target: T3, Gid9 (endogenous, in native GID^Ant) (S. cerevisiae (endogenous in strain …, UniProt P40492 1-516)); assay: cryo-EM structure
T3 sequence: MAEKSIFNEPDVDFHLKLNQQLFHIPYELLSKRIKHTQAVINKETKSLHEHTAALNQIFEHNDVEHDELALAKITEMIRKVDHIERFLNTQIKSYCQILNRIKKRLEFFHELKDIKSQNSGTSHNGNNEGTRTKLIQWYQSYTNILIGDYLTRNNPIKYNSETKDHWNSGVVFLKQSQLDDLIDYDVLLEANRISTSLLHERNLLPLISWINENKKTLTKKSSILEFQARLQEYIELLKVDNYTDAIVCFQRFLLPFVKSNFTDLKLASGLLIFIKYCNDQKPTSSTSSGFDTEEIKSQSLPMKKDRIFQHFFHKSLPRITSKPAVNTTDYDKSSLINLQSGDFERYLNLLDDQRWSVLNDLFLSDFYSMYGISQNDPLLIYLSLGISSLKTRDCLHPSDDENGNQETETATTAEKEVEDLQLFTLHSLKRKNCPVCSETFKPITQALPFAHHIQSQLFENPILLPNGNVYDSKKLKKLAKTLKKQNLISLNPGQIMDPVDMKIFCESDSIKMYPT

Gid1 = biological target: T4, Gid1 (S. cerevisiae, UniProt P53076 1-958); assay: […]
T4 sequence: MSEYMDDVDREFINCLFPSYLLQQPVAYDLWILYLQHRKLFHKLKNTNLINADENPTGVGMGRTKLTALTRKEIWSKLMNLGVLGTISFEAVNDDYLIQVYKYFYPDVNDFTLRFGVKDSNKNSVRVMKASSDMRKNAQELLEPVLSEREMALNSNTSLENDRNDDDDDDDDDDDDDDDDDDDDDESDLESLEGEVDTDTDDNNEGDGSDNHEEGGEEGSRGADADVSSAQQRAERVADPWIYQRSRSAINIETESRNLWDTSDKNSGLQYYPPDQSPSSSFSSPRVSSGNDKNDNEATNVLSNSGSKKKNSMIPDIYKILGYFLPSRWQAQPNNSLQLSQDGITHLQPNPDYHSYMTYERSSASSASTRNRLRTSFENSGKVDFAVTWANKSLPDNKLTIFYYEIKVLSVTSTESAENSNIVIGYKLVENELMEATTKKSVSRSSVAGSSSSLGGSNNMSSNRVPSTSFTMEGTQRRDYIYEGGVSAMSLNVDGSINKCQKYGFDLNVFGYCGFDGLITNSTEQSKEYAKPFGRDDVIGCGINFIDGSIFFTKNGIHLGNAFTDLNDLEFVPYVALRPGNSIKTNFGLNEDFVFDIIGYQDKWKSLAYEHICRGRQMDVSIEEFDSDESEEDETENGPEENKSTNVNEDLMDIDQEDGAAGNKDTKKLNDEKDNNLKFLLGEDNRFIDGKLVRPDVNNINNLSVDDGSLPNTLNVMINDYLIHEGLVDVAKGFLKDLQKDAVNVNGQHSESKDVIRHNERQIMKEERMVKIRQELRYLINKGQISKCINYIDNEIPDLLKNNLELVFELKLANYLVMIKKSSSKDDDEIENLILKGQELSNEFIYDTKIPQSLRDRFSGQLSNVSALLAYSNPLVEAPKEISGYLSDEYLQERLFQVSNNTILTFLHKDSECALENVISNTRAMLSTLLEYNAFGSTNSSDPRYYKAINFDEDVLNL

Row | Binder | binding result (Gid9) | binding result [1] | binding result [2] | binding result (Gid1)
1 | Gid2 (natural protein) MSELLDSFETEFAKFYTDSNLEETNLQKCLDHTHEFKSQLKKLKAHLNKHIQESKPEVYNKLSDKEKQKFKRKRELIIEKLSKSQRQWDHSVKKQIKYVSQQSNRFNKSTLNKLKEFDIDSVYVNKLPKETMENVNEAIGYHILRYSIDNMPLGNKNEAFQYLKDVYGITNKESTEFIEMGQIVHDLKKGDTESCLKWCSNEMESLSSNHTALSSLKFDLYTLSAMQIVKHGNPVELYYQITQNAPLDCFRHREKELMQNVVPLLTKSLIGQPIEDIDSKVNKELKECTSLFIKEYCAAKHIFFDSPLFLIVLSGLISFQFFIKYKTIRELAHVDWTTKDELPFDVKLPDFLTHFHPIFICPVLKEETTTENPPYSLACHHIISKKALDRLSKNGTITFKCPYCPVNTSMSSTKKVRFVML | binds | – | – | –
2 | Gid8 with 3X Flag tag at the C-terminus (endogenous, strain CRLY45) (natural protein) MTISTLSNETTKSGSCSGQGKNGGKDFTYGKKCFTKEEWKEQVAKYSAMGELYANKTIHYPLKIQPNSSGGSQDEGFATIQTTPIEPTLPRLLLNYFVSMAYEDSSIRMAKELGFIRNNKDIAVFNDLYKIKERFHIKHLIKLGRINEAMEEINSIFGLEVLEETFNATGSYTGRTDRQQQQQQQQFDIDGDLHFKLLLLNLIEMIRSHHQQENITKDSNDFILNLIQYSQNKLAIKASSSVKKMQELELAMTLLLFPLSDSADSGSIKLPKSLQNLYSISLRSKIADLVNEKLLKFIHPRIQFEISNNNSKFPDLLNSDKKIITQNFTVYNNNLVNGSNGTKITHISSDQPINEKMSSNEVTAAANSVWLNQRDGNVGTGSAATTFHNLENKNYWNQTSELLSSSNGKEKGLEFNNYYSSEFPYEPRLTQIMKLWCWCENQLHHNQIGVPRVEN | – | binds | binds | –
3 | Gid8 (natural protein) MTISTLSNETTKSGSCSGQGKNGGKDFTYGKKCFTKEEWKEQVAKYSAMGELYANKTIHYPLKIQPNSSGGSQDEGFATIQTTPIEPTLPRLLLNYFVSMAYEDSSIRMAKELGFIRNNKDIAVFNDLYKIKERFHIKHLIKLGRINEAMEEINSIFGLEVLEETFNATGSYTGRTDRQQQQQQQQFDIDGDLHFKLLLLNLIEMIRSHHQQENITKDSNDFILNLIQYSQNKLAIKASSSVKKMQELELAMTLLLFPLSDSADSGSIKLPKSLQNLYSISLRSKIADLVNEKLLKFIHPRIQFEISNNNSKFPDLLNSDKKIITQNFTVYNNNLVNGSNGTKITHISSDQPINEKMSSNEVTAAANSVWLNQRDGNVGTGSAATTFHNLENKNYWNQTSELLSSSNGKEKGLEFNNYYSSEFPYEPRLTQIMKLWCWCENQLHHNQIGVPRVEN | binds | – | – | binds
